As usually defined, the stoichiometry N is a count of units in the complex or per binding partner.

Values joined by “and” are separate entries in the source; they are usually repeats but may differ in a detail not shown here. Equal entries are not always repeated.

One experiment has as its target OmpC (Escherichia coli) (UniProt P06996). As to the kind of experiment: FRET. Particulars: cited from earlier work.
Experiment [1] deals with Cys-tOmpA labeled with Alexa Fluor 488 (E. coli). As to the kind of experiment: MST; 100 nM Alexa Fluor 488-labeled Cys-tOmpA, SurA 100 μM–3 nM, 0.25 M urea, 50 mM glycine–NaOH pH 9.5; Monolith NT.115; fit to the Hill equation; apparent.
In experiment [2] the target is T1, transmembrane domain of OmpA (tOmpA) (E. coli, UniProt P0A910 22-192).
T1 construct: 171-residue transmembrane (beta-barrel) domain of OmpA; Diluted from a denatured state in 8 M urea into the chaperone solution; PDB 1QJP, used for the simulations, is the same domain with mutated residues
T1 sequence (looked up): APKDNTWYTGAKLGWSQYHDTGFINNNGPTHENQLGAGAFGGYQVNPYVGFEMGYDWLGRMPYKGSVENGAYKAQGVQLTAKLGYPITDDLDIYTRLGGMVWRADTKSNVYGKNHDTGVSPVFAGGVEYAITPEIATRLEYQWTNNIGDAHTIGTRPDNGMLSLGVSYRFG
As to the kind of experiment: native MS; nano-ESI; proteins alone or pre-mixed 1:1; tOmpA diluted from 8 M urea into Skp or SurA (all 1 μM final, 0.2 M urea, 50 mM glycine–NaOH pH 9.5), 5 min at room temperature, then buffer exchange into 200 mM ammonium acetate pH 10. Particulars: both partners purified.

The target in experiment [3] is T2, SurA (Escherichia coli), P0ABZ6.
T2 chain: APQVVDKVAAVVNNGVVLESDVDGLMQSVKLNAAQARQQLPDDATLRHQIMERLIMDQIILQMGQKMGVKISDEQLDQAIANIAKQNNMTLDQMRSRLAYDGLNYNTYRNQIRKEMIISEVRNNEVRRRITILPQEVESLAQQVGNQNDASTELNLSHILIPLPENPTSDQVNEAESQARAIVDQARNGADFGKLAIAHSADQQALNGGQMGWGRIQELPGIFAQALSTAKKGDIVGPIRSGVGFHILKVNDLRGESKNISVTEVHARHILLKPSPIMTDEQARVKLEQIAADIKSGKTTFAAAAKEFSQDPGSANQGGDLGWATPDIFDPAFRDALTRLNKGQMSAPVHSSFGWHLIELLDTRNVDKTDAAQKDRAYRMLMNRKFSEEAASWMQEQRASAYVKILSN
Described as above. Conditions: remark: other sources report otherwise.

Chain of OmpC (Escherichia coli) (P06996 22-367): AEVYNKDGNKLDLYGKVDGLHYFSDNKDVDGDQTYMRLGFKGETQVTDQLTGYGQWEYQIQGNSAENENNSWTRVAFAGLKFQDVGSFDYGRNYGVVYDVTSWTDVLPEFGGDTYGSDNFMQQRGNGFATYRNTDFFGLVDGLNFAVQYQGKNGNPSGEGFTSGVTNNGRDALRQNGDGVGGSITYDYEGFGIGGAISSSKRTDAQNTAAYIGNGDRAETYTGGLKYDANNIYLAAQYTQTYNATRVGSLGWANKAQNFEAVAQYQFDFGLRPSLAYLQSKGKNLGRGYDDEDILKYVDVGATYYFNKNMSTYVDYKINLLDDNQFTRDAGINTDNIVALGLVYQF

Consider SurA (from UniProt P0ABZ6), for which the Kd in the experiment with OmpC (Escherichia coli) is 106 nM.

B1: SurA (natural protein, Escherichia coli, UniProt P0ABZ6 21-428, looked up)
chain: APQVVDKVAAVVNNGVVLESDVDGLMQSVKLNAAQARQQLPDDATLRHQIMERLIMDQIILQMGQKMGVKISDEQLDQAIANIAKQNNMTLDQMRSRLAYDGLNYNTYRNQIRKEMIISEVRNNEVRRRITILPQEVESLAQQVGNQNDASTELNLSHILIPLPENPTSDQVNEAESQARAIVDQARNGADFGKLAIAHSADQQALNGGQMGWGRIQELPGIFAQALSTAKKGDIVGPIRSGVGFHILKVNDLRGESKNISVTEVHARHILLKPSPIMTDEQARVKLEQIAADIKSGKTTFAAAAKEFSQDPGSANQGGDLGWATPDIFDPAFRDALTRLNKGQMSAPVHSSFGWHLIELLDTRNVDKTDAAQKDRAYRMLMNRKFSEEAASWMQEQRASAYVKILSN
notes: SurA, periplasmic chaperone of Escherichia coli; Probably the mature protein without its signal peptide (surmised); also called Escherichia coli periplasmic chaperone SurA
As for B1, the Kd in experiment [1] was determined as 1800 nM. Also, the “stoichiometry N” value was 1 and 2 in experiment [2]; 2 in experiment [3].

B2: Skp (natural protein, Escherichia coli, UniProt P0AEU7 21-161, looked up)
chain: ADKIAIVNMGSLFQQVAQKTGVSNTLENEFKGRASELQRMETDLQAKMKKLQSMKAGSDRTKLEKDVMAQRQTFAQKAQAFEQDRARRSNEERGKLVTRIQTAVKSVANSQDIDLVVDANAVAYNSSDVKDITADVLKQVK
notes: Skp, periplasmic chaperone of Escherichia coli; Probably the mature protein without its signal peptide (surmised); also called Escherichia coli periplasmic chaperone Skp
As for B2, the “stoichiometry N” value in experiment [2] worked out at 1.

(Values after paper PMC5692476, “Effects of Periplasmic Chaperones and Membrane Thickness on BamA-Catalyzed Outer-Membrane Protein Folding” (Journal of Molecular Biology, 2017).)
